# Assay: yeast display, Sf9 membrane polyspecificity reagent, FACS + sequencing; frameworks hold sequencing errors
# Method in brief: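 Galactose induction of a Saccharomyces cerevisiae BJ5465 synthetic nanobody display library ran 36–48 hours. The cells were then stained for 1 hour at 4 °C with 10% biotinylated, detergent-solubilized Sf9 membrane reagent, pulled down on streptavidin microbeads and FACS-sorted into low and high (top ~1%) gates on expression and reagent-binding fluorescence. Labels for polyreactivity follow the gate of origin.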
row,Sequence,polyreactivity (PSR sort gate)
1,QVQLVESGGGLVQAGGSLRLSCAASGFIFRWNAMGWYRQAPGKVRELVAAISNSDGSTYYADSVKGRFTISRDNAKNTVYVQMNSLKPEDTAVYYCYKLYRGGWYDYWGQGTQVTVSS,low polyreactivity
2,QVQLVESGGGLVQAGGSLRLSCAASGFIFRWYAMGWYRQAPGKERELVAAITWRGGSTYADSVKGRFTISRDNAKNTVYLQMNSLKPEDTAVCYCAAETHRRYDYWGQGTQVTVSS,high polyreactivity
3,QVQLVESGGGLVQAGGSLRLSCAASGFIFRYNAMGWYRQAPGKERELVAAITSNGGRTYYADSVKGRFTISRDNAKNTVYLQMNSLKPEDTAVYYCNALGRTYPAYQDDYWGQGTQVTVSS,high polyreactivity
4,QVQLVESGGGLVQAGGSLRLSCAASGFIFRYYAKGWYRQAPGKERELVAAISSSGGSTYYADSVKGRFTISRDNAQKTVYLQMNSLKPEDTAVYYCNAYNYGYIGYGYNYWGQGTQVTVSS,high polyreactivity
5,QVQLVESGGGLVQAGGSLRLSCAASGFIFRYYAMGLYRHAPGKERELVASISSGGSTDYADSVKGRFTISRDNAKNTVYLQMNSLKPEDTAVYYCAAGYRSLSLHVGSYRYYYRGQGTQVTVSS,high polyreactivity
6,QVQLVESGGGLVQAGGSLRLSCAASGFIFRYYAMGWARQAPAKERELVAAISWSGTRTFYADSVKARFTISRDNAKNTVYLQMNSLKPEDTAVYYCAAETTGYDSYIQYEYWGQGTQVTVSS,high polyreactivity
7,QVQLVESGGGLVQAGGSLRLSCAASGFIFRYYAMGWLRQAPGKERELVAAISWSGGNTYYADSVKGRFTISRDNAKNTVYLQMNSLKPEDTAVYYCAARVARISVPYDYWGQGTQVTVSS,low polyreactivity
8,QVQLVESGGGLVQAGGSLRLSCAASGFIFRYYAMGWYIQAPGKERELVAAITISGTRTYYADSVKGRFTISRDNAKNTVYLQMNSLKPEDTAVYYCAAYTSVRPKLDYWGQGTQVTVSS,high polyreactivity
9,QVQLVESGGGLVQAGGSLRLSCAASGFIFRYYAMGWYRQAPGKEREFVAGITGTGGSTYYADSVKGRFTISRDNAKNTVYLQMNSLKPEDTAVYYCAADLWYFSSRVRYGYWGQGTQVTVSS,high polyreactivity
10,QVQLVESGGGLVQAGGSLRLSCAASGFIFRYYAMGWYRQAPGKEREFVAVISSGGGRTYYADSVKGRFTISRDNAKNTVYLQMNSLKPEDTAVYYCAKGYRYWVRIVRSFTSYDYWGQGTQVTVSS,high polyreactivity
11,QVQLVESGGGLVQAGGSLRLSCAASGFIFRYYAMGWYRQAPGKERELDAAISGSGGSTYYADSVKGRFTISRDNAKNTVYLQMNSLKPEDTAVYYCAKSYGSHRKIRTSFGYWGQGTQVTVSS,high polyreactivity
12,QVQLVESGGGLVQAGGSLRLSCAASGFIFRYYAMGWYRQAPGKERELVAAIRRGGSTYYADSVKGRFTISRDNAKNTVYLQMNSLKPEDTAVYYCAASFWGIAMGYWGQGTQVTVSS,high polyreactivity
13,QVQLVESGGGLVQAGGSLRLSCAASGFIFRYYAMGWYRQAPGKERELVAAISGSGGSTYYADSVKGRFTISRDNAKNTVYLQMNSLKPEDTAVYYCAAYYYGYEYWGQGTQVTVSS,high polyreactivity
14,QVQLVESGGGLVQAGGSLRLSCAASGFIFRYYAMGWYRQAPGKERELVAAISWSGSSTYYADSVKGRFTISRDNAKNTVYLQMNSLKPEDTAVYYCNAVTRNARDYWGQGTLVTVSS,high polyreactivity
15,QVQLVESGGGLVQAGGSLRLSCAASGFIFRYYAMGWYRQAPGKERELVAAITSDGSTYYADSVKGRFTISRDNAKNTVYLQMNSLKPEDTAVYYCARSVYRFYLKTRASDYWGQGTQETVSS,high polyreactivity
16,QVQLVESGGGLVQAGGSLRLSCAASGFIFRYYAMGWYRQAPGKERELVAAITSRGSSTYYADSVKGRFTISRDNAKNTVYLQMNSLKPEDTAVYYCAARLRGDYVRYDYWGQGTQVTVSS,high polyreactivity
17,QVQLVESGGGLVQAGGSLRLSCAASGFIFRYYAMGWYRQAPGKERELVARIRSSGGSTYYADSVKGRFTISRDNAKKTVYLKMNSLKPEDTAVYYCDTVSYITYYGGYGYWGQGTQVTVSS,high polyreactivity
18,QVQLVESGGGLVQAGGSLRLSCAASGFIFRYYAMGWYRQAPGKERELVATINSSGGSTYYADSVKGRFTISRDNAKNTVYLQMNSLKPEDTAVYYCYAGYVSYRGQSRYEYWGQGTQVTVSS,high polyreactivity
19,QVQLVESGGGLVQAGGSLRLSCAASGFIFRYYTMGWYRQAPGKERELVAAISYSGGRTYYADSVKGRFTISRDNAKNTVYLQMNSVKPEDTAVYYCAARQGYVDDDYWGQGTQVTVSS,high polyreactivity
20,QVQLVESGGGLVQAGGSLRLSCAASGFIFRYYTMGWYRQAPGKERELVAAITSGGSTTYADSVKGRFTISRDNAKNTVYFQMNSLKPEDTAVYYCNTAYWYSLYDYWGQGTQVTVSS,high polyreactivity
21,QVQLVESGGGLVQAGGSLRLSCAASGFIFRYYTMGWYRQAPRKERELVASITSGGSTYYADSVKGRFTSSRDNAKNTVYLQMNCLKPEDTAVYSCAKHRDVLWRYKYWGQGTQVTVSS,high polyreactivity
22,QVQLVESGGGLVQAGGSLRLSCAASGFIFRYYVMGWYRQAPGKERELVAAITGSGGSTYYADSVKGRFTISRDNAKNTVYLQMNSLKPEDTAVYYCAARVWPIVQNYYWGQGTQVTVSS,high polyreactivity

row,Sequence,polyreactivity (PSR sort gate)
1,QVQLVESGGGLVQAGGSLRLSCAASGFIFSCYAMGWDRQAPGKERELVAAISWSGGSTYYADSVKGRFTISRDNAKNTVYLQMNSLKPEDTAVYYCAADRGYRRLFLNNVDYWGQGTQVTVSS,high polyreactivity
2,QVQLVESGGGLVQAGGSLRLSCAASGFIFSENAMGWYRQAPGKERELVAAISDGGGSTYYADSVKGRFTISRDNAKNTVYLQMNSLKPEDTAVYYCNAVYHPKGPSGYGYWGQGTQVTVSS,low polyreactivity
3,QVQLVESGGGLVQAGGSLRLSCAASGFIFSKNAMGWSRQAPGKERELVAAISYSGGSTYYADSVKGRFTISRDNAKNTVYLQMNSLKPEDTAVNYCAAGGIYAPSSEYDSWGQGTQVTVSS,low polyreactivity
4,QVQLVESGGGLVQAGGSLRLSCAASGFIFSKNVMGWYRQAPGKERELVARITRSGGTTYYADSVKVRFTISRDNAKNTVYLQMHRLKQEDTAVYYCAARRYGYTSITWYDYWGQGTQVTVSS,high polyreactivity
5,QVQLVESGGGLVQAGGSLRLSCAASGFIFSKYAMGWYRQAPGKERELVAAISWNGGSTYYADSVKGRFTISRDNAKNTVYLQMNSLKPEDTAVYYCNTGYGRIRRPGALDYWGQGTQVTVSS,high polyreactivity
6,QVQLVESGGGLVQAGGSLRLSCAASGFIFSLYAMGWYRQAPGKERELVAAITRGGSTKYADSVKGRFTISRDNAKNTVYLQMNSLKPEDTAVYYCAARYNGKLNWGQGTQVTVSS,high polyreactivity
7,QVQLVESGGGLVQAGGSLRLSCAASGFIFSLYAMGWYRQAPGTERELVAAISKRGGSTNYADSVKGRFTISRDNAKNTVYLQMNSLKPEDTAVYYCAKARPGFLYDHWGQGTQVTVSS,high polyreactivity
8,QVQLVESGGGLVQAGGSLRLSCAASGFIFSNNAMGWYIEAPGKERELVAVINGGGSTYYADSVKGRFTISRDNAKNTVYLQMNSLKPEDTAVYYCARKSWPKEGRVDPGYDYWGQGTQVTVSS,low polyreactivity
9,QVQLVESGGGLVQAGGSLRLSCAASGFIFSNNDRGLYRQAPGKDREVVAVINGGGSTYYADSVKASFTISRDNAKNTVFLQMNSLKPEDTAVYYCARKSWPKERRVDPGYDYWGQGTKVTVSS,low polyreactivity
10,QVQLVESGGGLVQAGGSLRLSCAASGFIFSPNAMGWYRQAPGKEREFVAAIRYSGTSTSYADSVKGRFTISRDNAKNTVYLQMNSLKPEDTAVYYCAAGRSNSYSPRRRVTYGYNYWGQGTQVTVSS,high polyreactivity
11,QVQLVESGGGLVQAGGSLRLSCAASGFIFSRYAMGWYRQAPGKERELVAAISWSGASTYYADSVKGRFTISRDNAKNTVYLQMNSLKPEYTAVYYCNAVVTYHYSVSSVGSRYDYWGQGTQVTVSS,high polyreactivity
12,QVQLVESGGGLVQAGGSLRLSCAASGFIFSRYDMGWYRQAPGKERELVAAIDWSGDSTYYADSVKGRFTISRDNAKHTVYLQMNSLQPEDTAVYYCAAYYYWGQGTQVTVSS,low polyreactivity
13,QVQLVESGGGLVQAGGSLRLSCAASGFIFSRYTMGWYRQAPGKERELVAAITARGSSTYYADSVKGRFTISRDIAKNTVYLQMISLKPEDTAVYYCNAGQYVFYRPYDYWGQGTQVTVSS,high polyreactivity
14,QVQLVESGGGLVQAGGSLRLSCAASGFIFSSYAMGWYRQAPGKEREFVAAIDWNSTSTYYADSVKGRFTISRDNAKNTVYLQMNSLKPEDTAVYYCAADWVGYFVYPYDYWGQGTQVTVSS,high polyreactivity
15,QVQLVESGGGLVQAGGSLRLSCAASGFIFSSYAMGWYRQAPGKERELVAAISKSGDRTSYADSVKGRFTISRDNAKNTVYLQMNSLKPEDTAVYYCAKDRLYRTKKYRDMYYWGQGTQVTVSS,high polyreactivity
16,QVQLVESGGGLVQAGGSLRLSCAASGFIFSVNAMGWYRQAPGKERELVAAISKRGGRTYYADSVKGRFTISRDNAKNTVYLQMNSLKPEDTAVYYCAADQPTLAYPGGYSAGMDYWGQGTQVTVSS,high polyreactivity
17,QVQLVESGGGLVQAGGSLRLSCAASGFIFSWNAMGWYRQAPGKERELVAGISWSGGSTYYADSVKGRFTISRDNAKNTVYLQMNSLKPEDTAVYYCAKEPSVGTGGVYRYGRGDYWGQGTQVTVSS,low polyreactivity
18,QVQLVESGGGLVQAGGSLRLSCAASGFIFSWYAMGWSRQAPGKERELVAAIDQSGDSTYYADSVKGRFTISRDNAKNTVYLQMNSLKPEDTAVYYCAAQSYDYWYDYDYWGQGTQVTVSS,high polyreactivity
19,QVQLVESGGGLVQAGGSLRLSCAASGFIFSWYAMGWSRQAPGKERELVAAISHDGGSTYYADSVKGRFTISRDNAKNTVYLQMNSLKPEDTAVYYCAAAFRAAGRTVRYYWGQGTQVTVSS,high polyreactivity
20,QVQLVESGGGLVQAGGSLRLSCAASGFIFSWYAMGWYRQAPGKERELVAAITSGGSTYYADSVKGRFTISRDNAKNTFYLQMNSLKPEDTAVYYCGTVVTYRYAFPYGYWGQGTQVTVSS,high polyreactivity
21,QVQLVESGGGLVQAGGSLRLSCAASGFIFSYAMGWYRQAPGKERELVAAISKSGGRTYYADSVKGRFTISRDNAKNTVYLQMNSLIPEDTAVYYCAVRDLHLSNARYNYWGQGSQVTVSS,high polyreactivity

# — the nanobody polyreactivity screen of Harvey et al. (2022)
